The chains are these.
T1: MED4 (human, UniProt Q9NPJ6 1-270)
T1 sequence: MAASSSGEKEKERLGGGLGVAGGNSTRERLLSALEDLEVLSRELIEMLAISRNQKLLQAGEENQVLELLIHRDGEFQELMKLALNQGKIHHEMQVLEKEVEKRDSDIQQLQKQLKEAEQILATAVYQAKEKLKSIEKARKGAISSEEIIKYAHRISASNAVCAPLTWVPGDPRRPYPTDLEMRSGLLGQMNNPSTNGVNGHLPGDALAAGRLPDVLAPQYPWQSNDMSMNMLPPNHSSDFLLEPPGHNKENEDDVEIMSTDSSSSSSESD

T2: MED7 (human, UniProt O43513 1-233)
T2 sequence: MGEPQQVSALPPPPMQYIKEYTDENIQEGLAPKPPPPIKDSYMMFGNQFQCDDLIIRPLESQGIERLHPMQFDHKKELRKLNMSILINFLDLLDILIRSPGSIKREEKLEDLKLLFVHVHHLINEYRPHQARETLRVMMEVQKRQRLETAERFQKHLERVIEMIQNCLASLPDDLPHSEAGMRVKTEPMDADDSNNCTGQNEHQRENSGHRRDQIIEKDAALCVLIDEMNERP

T3: TFIIB (human, UniProt Q00403 1-316)
T3 sequence: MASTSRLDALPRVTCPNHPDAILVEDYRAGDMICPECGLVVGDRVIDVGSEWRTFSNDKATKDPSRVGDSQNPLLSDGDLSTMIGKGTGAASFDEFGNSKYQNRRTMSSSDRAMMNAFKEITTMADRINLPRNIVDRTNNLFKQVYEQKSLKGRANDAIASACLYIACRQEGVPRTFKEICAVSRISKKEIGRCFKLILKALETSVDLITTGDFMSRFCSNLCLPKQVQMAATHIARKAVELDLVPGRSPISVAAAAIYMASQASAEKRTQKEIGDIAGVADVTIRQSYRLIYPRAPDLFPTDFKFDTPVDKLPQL

T4: MED8 (human, UniProt Q96G25 1-268)
T4 sequence: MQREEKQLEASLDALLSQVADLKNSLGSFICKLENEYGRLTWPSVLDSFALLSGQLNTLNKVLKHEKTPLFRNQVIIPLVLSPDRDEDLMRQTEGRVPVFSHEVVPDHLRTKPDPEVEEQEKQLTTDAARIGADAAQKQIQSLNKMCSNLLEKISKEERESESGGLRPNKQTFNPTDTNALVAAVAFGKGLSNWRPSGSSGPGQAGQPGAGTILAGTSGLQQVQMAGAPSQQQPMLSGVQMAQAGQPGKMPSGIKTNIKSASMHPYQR

T5: MED17 (human, UniProt Q9NVC6 1-651)
T5 sequence: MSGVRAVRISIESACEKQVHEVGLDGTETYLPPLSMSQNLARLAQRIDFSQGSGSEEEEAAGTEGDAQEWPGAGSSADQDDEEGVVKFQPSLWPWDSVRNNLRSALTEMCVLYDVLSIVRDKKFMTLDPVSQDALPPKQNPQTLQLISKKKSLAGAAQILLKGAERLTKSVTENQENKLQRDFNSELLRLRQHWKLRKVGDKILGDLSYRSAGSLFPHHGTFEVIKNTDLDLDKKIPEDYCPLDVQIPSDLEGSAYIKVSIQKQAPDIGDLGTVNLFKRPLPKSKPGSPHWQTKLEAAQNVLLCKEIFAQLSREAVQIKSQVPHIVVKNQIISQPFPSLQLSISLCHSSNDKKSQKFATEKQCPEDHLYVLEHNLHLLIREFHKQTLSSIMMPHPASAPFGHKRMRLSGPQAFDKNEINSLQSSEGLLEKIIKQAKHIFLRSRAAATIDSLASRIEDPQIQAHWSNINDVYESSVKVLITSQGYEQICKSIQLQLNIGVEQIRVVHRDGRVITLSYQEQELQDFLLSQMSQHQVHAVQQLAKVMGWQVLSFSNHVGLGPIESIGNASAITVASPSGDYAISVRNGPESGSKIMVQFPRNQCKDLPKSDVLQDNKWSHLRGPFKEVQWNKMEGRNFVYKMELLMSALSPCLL

T6: MED30 (human, UniProt Q96HR3 1-178)
T6 sequence: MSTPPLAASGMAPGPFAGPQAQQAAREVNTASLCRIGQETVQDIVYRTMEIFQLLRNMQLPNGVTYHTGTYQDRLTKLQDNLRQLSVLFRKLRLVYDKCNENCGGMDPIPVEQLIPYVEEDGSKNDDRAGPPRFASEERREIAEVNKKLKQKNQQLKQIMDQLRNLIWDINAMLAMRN

B1: MED31 (natural protein)
chain: MAAAVAMETDDAGNRLRFQLELEFVQCLANPNYLNFLAQRGYFKDKAFVNYLKYLLYWKDPEYAKYLKYPQCLHMLELLQYEHFRKELVNAQCAKFIDEQQILHWQHYSRKRMRLQQALAEQQQQNNTSGK
B2: MED18 (natural protein)
chain: MEAPPVTMMPVTGGTINMMEYLLQGSVLDHSLESLIHRLRGLCDNMEPETFLDHEMVFLLKGQQASPFVLRARRSMDRAGAPWHLRYLGQPEMGDKNRHALVRNCVDIATSENLTDFLMEMGFRMDHEFVAKGHLFRKGIMKIMVYKIFRILVPGNTDSTEALSLSYLVELSVVAPAGQDMVSDDMKNFAEQLKPLVHLEKIDPKRLM
B3: MED27 (natural protein)
chain: MADVINVSVNLEAFSQAISAIQALRSSVSRVFDCLKDGMRNKETLEGREKAFIAHFQDNLHSVNRDLNELERLSNLVGKPSENHPLHNSGLLSLDPVQDKTPLYSQLLQAYKWSNKLQYHAGLASGLLNQQSLKRSANQMGVSAKRRPKAQPTTLVLPPQYVDDVISRIDRMFPEMSIHLSRPNGTSAMLLVTLGKVLKVIVVMRSLFIDRTIVKGYNENVYTEDGKLDIWSKSNYQVFQKVTDHATTALLHYQLPQMPDVVVRSFMTWLRSYIKLFQAPCQRCGKFLQDGLPPTWRDFRTLEAFHDTCRQ
B4: MED28 (natural protein)
chain: MAAPLGGMFSGQPPGPPQAPPGLPGQASLLQAAPGAPRPSSSTLVDELESSFEACFASLVSQDYVNGTDQEEIRTGVDQCIQKFLDIARQTECFFLQKRLQLSVQKPEQVIKEDVSELRNELQRKDALVQKHLTKLRHWQQVLEDINVQHKKPADIPQGSLAYLEQASANIPAPLKPT
B5: MED6 (natural protein)
chain: MAAVDIRDNLLGISWVDSSWIPILNSGSVLDYFSERSNPFYDRTCNNEVVKMQRLTLEHLNQMVGIEYILLHAQEPILFIIRKQQRQSPAQVIPLADYYIIAGVIYQAPDLGSVINSRVLTAVHGIQSAFDEAMSYCRYHPSKGYWWHFKDHEEQDKVRPKAKRKEEPSSIFQRQRVDALLLDLRQKFPPKFVQLKPGEKPVPVDQTKKEAEPIPETVKPEEKETTKNVQQTVSAKGPPEKRMRLQ
B6: MED20 (natural protein)
chain: MGVTCVSQMPVAEGKSVQQTVELLTRKLEMLGAEKQGTFCVDCETYHTAASTLGSQGQTGKLMYVMHNSEYPLSCFALFENGPCLIADTNFDVLMVKLKGFFQSAKASKIETRGTRYQYCDFLVKVGTVTMGPSARGISVEVEYGPCVVASDCWSLLLEFLQSFLGSHTPGAPAVFGNRHDAVYGPADTMVQYMELFNKIRKQQQVPVAGIR
B7: MED11 (natural protein)
chain: MATYSLANERLRALEDIEREIGAILQNAGTVILELSKEKTNERLLDRQAAAFTASVQHVEAELSAQIRYLTQVATGQPHEGSSYSSRKDCQMALKRVDYARLKLSDVARTCEQMLEN

Test in all cases: cryo-EM structure
One assay has as its target T1, MED4.
A further assay deals with T2, MED7.
For a further assay, the target named is MED14 (human, UniProt O60244 1-1454).
The target of another assay is T3, TFIIB.
For another assay, the target named is T4, MED8.
For the assay “MED20”, the target named is B6.
The next assay addresses T5, MED17.
Another assay has as its target T6, MED30.
For the assay “MED27”, the target named is B3.
For the assay “MED28”, the target named is B4.

Chain of MED14 (O60244 whole entry): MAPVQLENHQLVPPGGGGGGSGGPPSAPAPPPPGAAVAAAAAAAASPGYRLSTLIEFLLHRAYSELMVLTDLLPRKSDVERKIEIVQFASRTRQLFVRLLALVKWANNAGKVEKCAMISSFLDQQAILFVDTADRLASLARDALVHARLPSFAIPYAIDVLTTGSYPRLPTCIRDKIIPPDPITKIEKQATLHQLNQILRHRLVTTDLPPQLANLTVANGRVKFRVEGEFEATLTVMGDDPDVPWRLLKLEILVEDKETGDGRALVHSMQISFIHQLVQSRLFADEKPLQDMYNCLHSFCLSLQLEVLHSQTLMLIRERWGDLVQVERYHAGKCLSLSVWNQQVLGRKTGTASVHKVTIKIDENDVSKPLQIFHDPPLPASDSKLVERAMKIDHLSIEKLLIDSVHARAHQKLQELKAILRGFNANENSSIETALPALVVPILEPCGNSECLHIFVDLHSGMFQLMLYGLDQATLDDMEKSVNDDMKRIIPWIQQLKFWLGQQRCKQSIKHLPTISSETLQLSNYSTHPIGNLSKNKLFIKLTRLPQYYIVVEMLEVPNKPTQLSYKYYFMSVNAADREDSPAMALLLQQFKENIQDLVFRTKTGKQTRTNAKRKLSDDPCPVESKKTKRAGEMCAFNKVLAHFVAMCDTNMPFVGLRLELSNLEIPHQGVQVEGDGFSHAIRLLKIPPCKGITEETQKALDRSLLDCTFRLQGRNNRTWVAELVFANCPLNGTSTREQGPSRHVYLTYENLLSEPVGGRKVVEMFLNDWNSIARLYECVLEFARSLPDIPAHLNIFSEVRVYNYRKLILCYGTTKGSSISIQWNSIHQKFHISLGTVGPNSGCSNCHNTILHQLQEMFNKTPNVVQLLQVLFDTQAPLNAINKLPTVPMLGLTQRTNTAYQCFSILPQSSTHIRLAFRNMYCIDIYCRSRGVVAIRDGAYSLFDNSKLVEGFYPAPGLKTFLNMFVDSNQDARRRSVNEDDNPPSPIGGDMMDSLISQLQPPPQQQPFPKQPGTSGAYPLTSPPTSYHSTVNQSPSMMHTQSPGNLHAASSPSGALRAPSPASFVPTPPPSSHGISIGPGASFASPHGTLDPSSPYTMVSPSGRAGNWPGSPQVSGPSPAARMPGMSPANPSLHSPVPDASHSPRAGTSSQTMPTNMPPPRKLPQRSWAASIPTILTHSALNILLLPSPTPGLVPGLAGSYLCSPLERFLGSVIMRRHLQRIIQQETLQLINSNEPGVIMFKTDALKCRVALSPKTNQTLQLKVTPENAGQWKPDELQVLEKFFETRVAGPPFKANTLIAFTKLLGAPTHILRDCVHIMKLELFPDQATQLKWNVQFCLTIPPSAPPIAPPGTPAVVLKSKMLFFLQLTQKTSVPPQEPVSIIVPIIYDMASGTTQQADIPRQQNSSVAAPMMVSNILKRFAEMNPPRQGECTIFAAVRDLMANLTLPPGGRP

In the case of B1, the binding result with MED4, in the assay with MED7 and with MED14 was “binds” each time.
For the molecule B2, the binding result with TFIIB, with MED8 and in the assay with MED20 was “binds” throughout.
B3: the binding result with MED17 and with MED14 was “binds” each time.
In the case of B4, in the assay with MED30, the binding result is listed as “binds”.
As for B5, the binding result with MED8 was “binds”.
For the molecule B6, the binding result with MED8 and with MED27 was “binds” in each case.
B7: the binding result in the assay with MED30 and with MED28 was “binds” each time.

These data come from publication doi:10.1101/2021.03.11.435010 (bioRxiv, 2021).
